Laboratory results as given in patent US20060198851A1.

Columns and labels:
[1] = target: soluble Aβ1-42, [125I]Aβ1-42 (human) (UniProt P05067); assay: capture radioimmunoassay, 50,000 CPM of 125I-Aβ 1-42 (or 125I-Aβ 1-40)
[2] = target: synthetic Aβ1-42 (aggregated in the ELISAs) (human) (UniProt P05067); assay: ELISA on aggregated synthetic Aβ1-42; given as ED50

Substance | % of radioactive counts bound at 10 µg/ml [1] | EC50 [2]
monoclonal antibody 10D5 (IgG1) | 2% | 0.053 nM
monoclonal antibody 12B4 (IgG2a) | 7% | 0.667 nM
